Assay [1] deals with T1, GDF11 (Homo sapiens, UniProt O95390).
T1 sequence (O95390 299-407): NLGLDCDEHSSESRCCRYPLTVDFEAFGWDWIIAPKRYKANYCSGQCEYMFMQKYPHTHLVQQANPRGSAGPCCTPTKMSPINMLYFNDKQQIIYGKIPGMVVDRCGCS
Nature of the assay: A-204 reporter gene assay, pGL3(CAGA)12 luciferase. It is filed as cell-based. Details: key to GDF11 Inhibition Activity: +: Poor activity (roughly 1 × 10^−6 KI); ++: Moderate activity (roughly 1 × 10^−7 KI); +++: Good (wild-type) activity (roughly 1 × 10^−8 KI); ++++: Greater than wild-type activity. The conditions noted are these: for GDF11 Inhibition Activity: Table 9, cell-based A-204 assay; for inhibition of GDF11 signaling: A-204 reporter gene assay. An excerpt: (§1) An A-204 reporter gene assay was used to evaluate the effects of ActRIIB-Fc proteins and ActRIIB variant Fc fusion polypeptides on signaling by GDF-11 and activin A. Cell line: human rhabdomyosarcoma (derived from muscle). Reporter vector: pGL3(CAGA)12 (described in Dennler et al, 1998, EMBO 17: 3091-3100). The CAGA12 motif is present in TGF-beta responsive genes (e.g., PAI-1 gene), so this vector is of general use for factors signaling through SMADs.
(§2) Day 1: Split A-204 cells into 48-well plate.
(§3) Day 2: A-204 cells transfected with 10 ug pGL3(CAGA)12 or pGL3(CAGA)12(10 ug)+pRLCMV (1 pg) and Fugene.
(§4) Day 3: Add factors (diluted into medium+0.1% BSA). Inhibitors need to be preincubated with factors for 1 hr before adding to cells. Six hrs later, cells were rinsed with PBS and lysed.
(§5) This is followed by a luciferase assay.
(§6) Activity of ActRIIB-Fc proteins and ActRIIB variant Fc fusion polypeptides was tested in a cell-based assay as described above. Some variants were tested in different C-terminal truncation constructs. As discussed above, truncations of five or fifteen amino acids caused reduction in activity. […]
On the technique in general: Reporter assays use an easily measured gene product as a stand-in for the process of interest.

For assay [2], the target named is T2, activin A (Homo sapiens, UniProt P08476).
T2 sequence (P08476 311-426): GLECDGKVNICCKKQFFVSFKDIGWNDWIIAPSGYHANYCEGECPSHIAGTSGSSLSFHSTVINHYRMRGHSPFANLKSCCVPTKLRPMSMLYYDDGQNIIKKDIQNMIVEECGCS
Kind of assay: A-204 reporter gene assay, pGL3(CAGA)12 luciferase. Details: key to Activin Inhibition Activity: +: Poor activity (roughly 1 × 10^−6 KI); ++: Moderate activity (roughly 1 × 10^−7 KI); +++: Good (wild-type) activity (roughly 1 × 10^−8 KI); ++++: Greater than wild-type activity. The conditions noted are these: for Activin Inhibition Activity: Table 9, cell-based A-204 assay; for inhibition of activin A signaling: A-204 reporter gene assay. The class given is cell-based.
From the text: as §1, §2, §3, §4, §5, §6

For assay [3], the target named is T3, GDF8 (Homo sapiens, UniProt O14793).
T3 sequence (O14793 267-375): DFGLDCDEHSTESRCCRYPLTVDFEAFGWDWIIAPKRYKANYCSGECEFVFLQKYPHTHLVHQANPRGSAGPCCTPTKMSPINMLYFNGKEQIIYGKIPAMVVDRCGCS
Nature of the assay: Biacore assay, ActRIIB-Fc captured with anti-hFc antibody, ligand injected (Example 8). The class given is binding. To be noted: for Koff: GDF8, Table 10. The protocol:
(§7) Binding of certain ActRIIB-Fc proteins and ActRIIB variant Fc fusion polypeptides to ligands was tested in a Biacore™ assay.
(§8) The ActRIIB-Fc variants or wild-type protein were captured onto the system using an anti-hFc antibody. Ligands were injected and flowed over the captured receptor proteins.

The target of assay [4] is T2, activin A. The assay is described as above. The conditions noted are these: for activin A binding: cell-free Biacore assay, Example 8. The class given is binding. The method, then:
as §7, §8
(In SPR one partner is held on a chip, and binding of the other changes the refractive index at the surface.)

The target of assay [5] is T1, GDF11. Described as above. The class given is binding. The conditions noted are these: for Koff: GDF11, Table 10; for GDF11 binding: cell-free Biacore assay, Example 8. The protocol: as §7, §8

B1: ActRIIB(R64K 20-129)-hFc: ActRIIB-Fc variant with R64K substitution, residues 20-129 (protein)
chain: GRGEAETRECIYYNANWELERTNQSGLERCEGEQDKRLHCYASWKNSSGTIELVKKGCWLDDFNCYDRQECVATEENPQVYFCCCEGNFCNERFTHLPEAGGPEVTYEPPGGGTHTCPPCPAPELLGGPSVFLFPPKPKDTLMISRTPEVTCVVVDVSHEDPEVKFNWYVDGVEVHNAKTKPREEQYNSTYRVVSVLTVLHQDWLNGKEYKCKVSNKALPVPIEKTISKAKGQPREPQVYTLPPSREEMTKNQVSLTCLVKGFYPSDIAVEWESNGQPENNYKTTPPVLDSDGSFFLYSKLTVDKSRWQQGNVFSCSVMHEALHNHYTQKSLSLSPGK
As to B1, the “GDF11 Inhibition Activity” value in assay [1] is “+++ (Good (wild-type) activity (roughly 1 × 10^−8 KI))”. In addition, in assay [2], the “Activin Inhibition Activity” value is listed as “+++ (Good (wild-type) activity (roughly 1 × 10^−8 KI))”. Also, the “Koff” value in assay [3] was determined as 0.000209 s⁻¹; in assay [4] (Activin A, Table 10) it was 0.000628 s⁻¹.

B2: ActRIIB(L79E 20-134)-hFc: alternative form with a glutamate rather than an aspartate at position 79 (protein)
chain: GRGEAETRECIYYNANWELERTNQSGLERCEGEQDKRLHCYASWRNSSGTIELVKKGCWEDDFNCYDRQECVATEENPQVYFCCCEGNFCNERFTHLPEAGGPEVTYEPPPTAPTGGGTHTCPPCPAPELLGGPSVFLFPPKPKDTLMISRTPEVTCVVVDVSHEDPEVKFNWYVDGVEVHNAKTKPREEQYNSTYRVVSVLTVLHQDWLNGKEYKCKVSNKALPVPIEKTISKAKGQPREPQVYTLPPSREEMTKNQVSLTCLVKGFYPSDIAVEWESNGQPENNYKTTPPVLDSDGSFFLYSKLTVDKSRWQQGNVFSCSVMHEALHNHYTQKSLSLSPGK
With B2, in assay [1], the “inhibition of GDF11 signaling” value is listed as “almost wild-type inhibition of GDF11” and the “GDF11 Inhibition Activity” value is on record as “+++ (Good (wild-type) activity (roughly 1 × 10^−8 KI))”. In assay [2], the “inhibition of activin A signaling” value is “substantial loss of activin A inhibition” and the “Activin Inhibition Activity” value is recorded as “+ (Poor activity (roughly 1 × 10^−6 KI))”. In addition, in assay [5], the “Koff” value is 0.000274 s⁻¹; the “GDF11 binding” value was “retains myostatin and GDF11 binding”. The “Koff” value in assay [3] amounted to 0.0009 s⁻¹. For the same molecule, in assay [3] (cell-free Biacore assay, Example 8), the “myostatin (GDF8) binding” value is “retains myostatin and GDF11 binding”. Also, the “KD (M)” value in assay [4] (Activin A, Table 10) is “Low binding”. Also, the “activin A binding” value in assay [4] is “markedly decreased (non-quantifiable) binding to activin A”.

B3: ActRIIB(K74A 20-134)-hFc: ActRIIB-Fc variant with K74A substitution, residues 20-134 (protein)
chain: GRGEAETRECIYYNANWELERTNQSGLERCEGEQDKRLHCYASWRNSSGTIELVAKGCWLDDFNCYDRQECVATEENPQVYFCCCEGNFCNERFTHLPEAGGPEVTYEPPPTAPTGGGTHTCPPCPAPELLGGPSVFLFPPKPKDTLMISRTPEVTCVVVDVSHEDPEVKFNWYVDGVEVHNAKTKPREEQYNSTYRVVSVLTVLHQDWLNGKEYKCKVSNKALPVPIEKTISKAKGQPREPQVYTLPPSREEMTKNQVSLTCLVKGFYPSDIAVEWESNGQPENNYKTTPPVLDSDGSFFLYSKLTVDKSRWQQGNVFSCSVMHEALHNHYTQKSLSLSPGK
As for B3, the “GDF11 Inhibition Activity” value in assay [1] was “++++”. For the same molecule, the “Activin Inhibition Activity” value in assay [2] is “++++”. In addition, the “Koff” value in assay [3] came to 2.03e-05 s⁻¹.

B4: ActRIIB(P129S, P130R 20-134)-hFc: ActRIIB-Fc variant with P129S and P130R substitutions, residues 20-134 (protein)
chain: GRGEAETRECIYYNANWELERTNQSGLERCEGEQDKRLHCYASWRNSSGTIELVKKGCWLDDFNCYDRQECVATEENPQVYFCCCEGNFCNERFTHLPEAGGPEVTYEPSRTAPTGGGTHTCPPCPAPELLGGPSVFLFPPKPKDTLMISRTPEVTCVVVDVSHEDPEVKFNWYVDGVEVHNAKTKPREEQYNSTYRVVSVLTVLHQDWLNGKEYKCKVSNKALPVPIEKTISKAKGQPREPQVYTLPPSREEMTKNQVSLTCLVKGFYPSDIAVEWESNGQPENNYKTTPPVLDSDGSFFLYSKLTVDKSRWQQGNVFSCSVMHEALHNHYTQKSLSLSPGK
B4: the “Koff” value in assay [3] is 0.00018 s⁻¹; in assay [4] (Activin A, Table 10) it was 0.000417 s⁻¹.

B5: ActRIIB(R64K 20-134)-hFc: ActRIIB-Fc variant with R64K substitution, residues 20-134 (protein)
chain: GRGEAETRECIYYNANWELERTNQSGLERCEGEQDKRLHCYASWKNSSGTIELVKKGCWLDDFNCYDRQECVATEENPQVYFCCCEGNFCNERFTHLPEAGGPEVTYEPPPTAPTGGGTHTCPPCPAPELLGGPSVFLFPPKPKDTLMISRTPEVTCVVVDVSHEDPEVKFNWYVDGVEVHNAKTKPREEQYNSTYRVVSVLTVLHQDWLNGKEYKCKVSNKALPVPIEKTISKAKGQPREPQVYTLPPSREEMTKNQVSLTCLVKGFYPSDIAVEWESNGQPENNYKTTPPVLDSDGSFFLYSKLTVDKSRWQQGNVFSCSVMHEALHNHYTQKSLSLSPGK
Regarding B5, the “GDF11 Inhibition Activity” value in assay [1] was “+++ (Good (wild-type) activity (roughly 1 × 10^−8 KI))”. Also, the “Activin Inhibition Activity” value in assay [2] was “+++ (Good (wild-type) activity (roughly 1 × 10^−8 KI))”. Further, the “Koff” value in assay [5] turned out to be 2.41e-05 s⁻¹; in assay [3] it was 4.71e-05 s⁻¹; in assay [4] (Activin A, Table 10), 0.000325 s⁻¹.

B6: ActRIIB(A24N 20-134)-hFc: ActRIIB-Fc variant with A24N substitution, residues 20-134 (protein)
chain: GRGENETRECIYYNANWELERTNQSGLERCEGEQDKRLHCYASWRNSSGTIELVKKGCWLDDFNCYDRQECVATEENPQVYFCCCEGNFCNERFTHLPEAGGPEVTYEPPPTAPTGGGTHTCPPCPAPELLGGPSVFLFPPKPKDTLMISRTPEVTCVVVDVSHEDPEVKFNWYVDGVEVHNAKTKPREEQYNSTYRVVSVLTVLHQDWLNGKEYKCKVSNKALPVPIEKTISKAKGQPREPQVYTLPPSREEMTKNQVSLTCLVKGFYPSDIAVEWESNGQPENNYKTTPPVLDSDGSFFLYSKLTVDKSRWQQGNVFSCSVMHEALHNHYTQKSLSLSPGK
For B6, in assay [1], the “inhibition of GDF11 signaling” value was “equivalent to the wild-type molecule” and the “GDF11 Inhibition Activity” value was “+++ (Good (wild-type) activity (roughly 1 × 10^−8 KI))”. Besides, in assay [2], the “inhibition of activin A signaling” value is “equivalent to the wild-type molecule” and the “Activin Inhibition Activity” value is recorded as “+++ (Good (wild-type) activity (roughly 1 × 10^−8 KI))”. Further, in assay [5], the “Koff” value was determined as 6.35e-05 s⁻¹ and the “GDF11 binding” value was “retains ligand-binding activity that is similar to that of the ActRIIB(20-134)-hFc molecule”. The “Koff” value in assay [4] (Activin A, Table 10) stood at 0.000346 s⁻¹. Besides, the “activin A binding” value in assay [4] is given as “retains ligand-binding activity that is similar to that of the ActRIIB(20-134)-hFc molecule”.

Source of the values: US20230129812A1, “COMPOSITIONS AND METHODS FOR TREATING PULMONARY HYPERTENSION” (Acceleron Pharma Inc., priority 2020, published 2023).
